Experimental data from patent US20090111968A1 (DUQUESNE UNIVERSITY OF THE HOLY GHOST, published 2009).
Where no end group is shown, it is not given here.

B1: 6x histidine tagged GB1 (lacking the Ymbs38 extension) (other, streptococcal, UniProt P06654 228-282, looked up)
chain: TYKLILNGKTLKGETTTEAVDAATAEKVFKQYANDNGVDGEWTYDDATKTFTVTE
modifications: also: 6x histidine tag, place not given here
notes: Calculated mass with tag 8387 Da (8.4 kDa); Control without the CopY part; also called 6xhis tagged GB1; not shown: 6x histidine tag
B2: 6x histidine tagged Zn(II)GB1-Ymbs38 fusion protein (other, streptococcal;E. hirae, UniProt P06654 228-282, looked up)
chain: TYKLILNGKTLKGETTTEAVDAATAEKVFKQYANDNGVDGEWTYDDATKTFTVTEATLTQEDIQQIMKQLNKKEPVETIECNCIPGQCECKKQ
modifications: Zn(II) bound by the four cysteines of the Cys-x-Cys-xxxx-Cys-x-Cys site
notes: Calculated monomer mass 12.8 kDa (tagged); also called 6hGB1-Ymbs38; native Zn(II)GB1-Ymbs38; not shown: N-terminal 6xHis tag and thrombin site (Leu-Val-Pro-Arg-Gly-Ser) from the pET-14b vector
B3: 6x histidine tagged apo (cysteine modified) GB1-Ymbs38 (other, streptococcal;E. hirae, UniProt P06654 228-282, looked up)
chain: B2 chain
modifications: Zn(II) removed (EDTA or acidification); the four cysteines of the metal binding motif carboxyamidomethylated with iodoacetamide
notes: Calculated mass of the carboxyamidomethylated protein 12,992 Da; also called apo-GB1-Ymbs38; Apo-GB1-Ymbs38; not shown: N-terminal 6xHis tag and thrombin site (Leu-Val-Pro-Arg-Gly-Ser) from the pET-14b vector

Legend:
[1] = target: the molecule itself; assay: ESI-MS, declustering voltage 10 V
Method: A Waters Micromass ZMD quadrupole mass spectrometer was used for all experiments. The mass spectrometer was calibrated with cesium iodide. The temperature at the ion spray interface was kept at 40° C. A voltage of 2.0 kV at the tip of the inlet capillary needle was used to generate the electrospray. The cone voltage was set at 20 V and the extractor voltage was set at 10 V, resulting in a declustering voltage (ΔCS) of 10 V. Samples of protein were prepared in 10 mM ammonium acetate, pH 8.0, at concentrations of approximately 250 μM and were delivered at a flow rate of 50 μL/min into the ion source.
A 6× histidine tagged version of GB1 alone (lacking the Ymbs38 extension) was subjected to ESI-MS under the same conditions. […] Charged ions due to monomeric GB1 are shown labeled with the bolded numbers. The molecular mass derived from the +6 and +7 charge states is 8258 Da. (Calculated molecular mass of GB1 with the 6× histidine tag=8387 Da.).

[2] = target: T1, untagged Zn(II)GB1-Ymbs38 (6x histidine tag removed by thrombin) (streptococcal; E. hirae, UniProt P06654 228-282; Q47839 108-145, Zn(II) bound by the four cysteines of the Cys-x-Cys-xxxx-Cys-x-Cys site); assay: HIS-Select nickel affinity resin binding assay, SDS-PAGE
T1 construct: also called untagged GB1-Ymbs38; untagged wild-type Zn(II)GB1-Ymbs38; not shown: vector residues left after thrombin cleavage at Leu-Val-Pro-Arg-Gly-Ser
Description: Sigma® HlS-Select™ Nickel Affinity resin was used to assess dimerization between histidine-tagged and untagged proteins. Tagged and untagged versions of CopY were isolated as described above. The untagged version of GB1-Ymbs38 was isolated from the purified tagged protein by treatment with the Sigma® THROMBIN CleanCleave™ Kit. A thrombin cleavage site between the histidine tag and the start of the GB1-Ymbs38 protein allowed for easy removal of the tag. Dimerization reactions of tagged and untagged protein were performed in 50 mM Tris, pH 7.8, 300 mM NaCl. Approximately equilmolar amounts of each protein were mixed and incubated at 37° C. for 45 minutes to promote subunit interchange. The protein mixture was applied to 100 μL of drained HIS-Select resin that had been equilibrated in 50 mM Tris, pH 7.8, 300 mM NaCl in a Centricep spin column (Princeton Separations, Inc.) at room temperature. After 1 minute of constant agitation, the resin-protein mixture was centrifuged at 500×g for 30 seconds and the flow through was collected in a clean microfuge tube. The resin then was washed twice with 350 μL of 50 mM Tris, pH 7.8, 300 mM NaCl, and once with 50 mM Tris, pH 7.8, 300 mM NaCl, 20 mM imidazole. Each wash step was followed by centrifugation at 500×g for 30 seconds to remove excess liquid. […] Eluants were analyzed on 15% Tris-tricine SDS-PAGE stained with Coomassie brilliant blue R-250.

[3] = target: the molecule itself; assay: large zone size exclusion chromatography, fit to monomer-dimer model, 4 °C
Method: The data points are the recorded experimental values of σw, at each loading concentration, and the solid line illustrates the best fit of the data to a monomer-dimer stoichiometric model. Non-linear least squares analysis was used to obtain the best fit according to the procedure. To verify that the data was fit to the appropriate stoichiometric model, a residual plot, which plots the difference between the observed fₘ and the calculated fₘ versus log [loaded protein], was prepared. The elution volume of each sample was converted to the weight average partition coefficient, which was plotted as a function of GB1-Ymbs38 concentration loaded onto the chromatography column. The Kd value was calculated from the best fit of the data to a monomer-dimer stoichiometric model, represented on the plot as a solid line. The plot shown corresponds to one of the three large zone chromatography trials performed on the apo-GB1-Ymbs38 protein variant.
The fitting of the data yielded the equilibrium association constants for each protein variant, which were subsequently converted to dissociation constants, Kd. Residual points were obtained by subtracting the fraction of monomer calculated by the best fit from the actual experimental value. Residuals were ploted against the log (loaded protein). […] Equilibrium association constants were used to calculate the Gibbs energy of assembly (ΔG°) through the equation: ΔG°=−RTlnKₐ₋Equilibrium association and dissociation constants, and the Gibbs free energy changes are shown in Table 6 for each GB1-Ymbs38 variant. A decrease in affinity between GB1-Ymbs38 monomers occurred upon mutation of the leucine and isoleucine residues or upon the removal of Zn(II), with the Zn(II) removal resulting in a larger decrease. The combination of Zn(II) removal and mutation of the aliphatic amino acids eliminated the ability of GB1-Ymbs38 monomer to self-associate.

[4] = target: the molecule itself; assay: large zone size exclusion chromatography (Shodex KW 803), one trial dated 6/9/06; non-linear least squares fit of the fraction of monomer to a monomer-dimer model; cell H5 'Equilibrium constant'; sum of squares 0.025076973; no unit in the cell, loaded concentrations are in M and the text gives Ka in M^-1
Method: A 5 mL aliquot of Zn(II)CopY was loaded onto a Shodex KW 803 column (total column volume is 15 mL) equilibrated in 50 mM Tris, pH 7.8, 150 mM NaCl, 0.05% β-mercaptoethanol. […] The measure of the apparent molecular weight of the protein at each concentration was calculated by correlating the elution volume of the leading edge with elution volumes of known molecular weight standards.
The plot of the change in apparent molecular weight versus the concentration of protein loaded onto the chromatography column provided an understanding of the process that occurred during the large zone chromatography experiment. The acquired data could be further manipulated in order to calculate the equilibrium dissociation constant for the GB1-Ymbs38 dimer. […] The data points are the recorded experimental values of σw, at each loading concentration, and the solid line illustrates the best fit of the data to a monomer-dimer stoichiometric model. […] To verify that the data was fit to the appropriate stoichiometric model, a residual plot, which plots the difference between the observed fₘ and the calculated fₘ versus log [loaded protein], was prepared. […] The Kd value was calculated from the best fit of the data to a monomer-dimer stoichiometric model, represented on the plot as a solid line.

[5] = target: the molecule itself; assay: large zone size exclusion chromatography, one of three trials; best fit of the weight average partition coefficient against log [loaded protein] to a monomer-dimer model; self-association
Method: The measure of the apparent molecular weight of the protein at each concentration was calculated by correlating the elution volume of the leading edge with elution volumes of known molecular weight standards.
The plot of the change in apparent molecular weight versus the concentration of protein loaded onto the chromatography column provided an understanding of the process that occurred during the large zone chromatography experiment. The acquired data could be further manipulated in order to calculate the equilibrium dissociation constant for the GB1-Ymbs38 dimer. The elution volume, Vₑ, was converted to the weight average partition coefficient, σw, which represented the fraction of solvent volume within the gel matrix that was accessible to the protein. […] The data points are the recorded experimental values of σw, at each loading concentration, and the solid line illustrates the best fit of the data to a monomer-dimer stoichiometric model. Non-linear least squares analysis was used to obtain the best fit according to the procedure. To verify that the data was fit to the appropriate stoichiometric model, a residual plot, which plots the difference between the observed fₘ and the calculated fₘ versus log [loaded protein], was prepared. […] The Kd value was calculated from the best fit of the data to a monomer-dimer stoichiometric model, represented on the plot as a solid line. […]

Row | binding result [2] | Binder | binding result [1] | Ka [3] [M⁻¹] | Kd [3] [µM] | Ka [4] [M⁻¹] | Kd [5] [µM]
1 | no binding | B1 | no binding (tested: approximately 250 µM) |  |  |  | 
2 |  | B2 |  | 37000 | 28 | 40200 | 
3 |  | B3 |  | 10000 | 51 |  | 54
